Patent publication US20170306005A1 (NASCIENT, published 2017)

T1: human tenascin-C rCd4-His-FBG (rat; human, UniProt P05540 207-392, limits assumed)
T1 construct: domain: domains 3 and 4; C-terminal FBG fusion; biotinylated in the ELISA and HTRF screens; also called Hu TNC; human TNC rCd4-His-FBG; not shown: 6His tag
T1 sequence (chain (part 1 of 2)): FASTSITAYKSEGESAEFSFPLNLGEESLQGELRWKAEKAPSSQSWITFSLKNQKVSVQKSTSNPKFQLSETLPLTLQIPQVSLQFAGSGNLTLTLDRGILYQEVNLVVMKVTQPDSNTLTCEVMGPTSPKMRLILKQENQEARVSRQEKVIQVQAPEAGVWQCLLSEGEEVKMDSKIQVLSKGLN
T1 sequence (chain (part 2 of 2)): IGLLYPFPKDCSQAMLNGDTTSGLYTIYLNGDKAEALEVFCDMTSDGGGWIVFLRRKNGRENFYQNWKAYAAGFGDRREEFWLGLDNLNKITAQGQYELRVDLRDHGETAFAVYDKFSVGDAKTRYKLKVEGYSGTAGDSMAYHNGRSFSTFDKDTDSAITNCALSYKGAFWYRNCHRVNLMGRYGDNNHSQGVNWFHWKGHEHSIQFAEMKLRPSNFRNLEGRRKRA

T2: mouse tenascin-C rCd4-His-FBG (rat; mouse, UniProt P05540 207-392, limits assumed)
T2 construct: domain: domains 3 and 4; C-terminal FBG fusion; biotinylated in the ELISA screen; also called Mu TNC; mouse TNC rCd4-His-FBG; not shown: 6His tag
T2 sequence (chain (part 1 of 2)): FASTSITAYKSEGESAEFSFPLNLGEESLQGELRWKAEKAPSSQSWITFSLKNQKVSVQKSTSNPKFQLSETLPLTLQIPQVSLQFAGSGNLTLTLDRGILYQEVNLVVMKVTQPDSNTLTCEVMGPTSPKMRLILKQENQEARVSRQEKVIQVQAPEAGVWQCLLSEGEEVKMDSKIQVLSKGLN
T2 sequence (chain (part 2 of 2)): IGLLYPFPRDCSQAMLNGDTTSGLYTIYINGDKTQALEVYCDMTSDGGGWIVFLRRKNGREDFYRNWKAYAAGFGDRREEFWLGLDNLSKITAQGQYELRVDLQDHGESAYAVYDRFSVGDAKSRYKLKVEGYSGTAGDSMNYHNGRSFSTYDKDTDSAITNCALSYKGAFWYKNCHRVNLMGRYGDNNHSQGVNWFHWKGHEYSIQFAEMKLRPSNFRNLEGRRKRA


Experiments:
[1] = target: T1, human tenascin-C rCd4-His-FBG; assay: SPR off-rate screen, captured IgG4 supernatant, 25 C
Method: (§1) The 31 scFv of interest were sub-cloned into a human IgG4 expression vector for generation of antibodies as human IgG4 with a hinge-stabilising mutation (S241P; Angal et al, 1993). […] Briefly, surface plasmon resonance (SPR) experiments were performed using a BIAcore T100 instrument and followed the protocol according to the Human antibody capture kit protocol (GE, BR-1008-39). For off-rate screening, 10,000 response units (RU) of anti-human Fc IgG (GE, BR-1008-39) was immobilised on flow-cells (FC1 and FC2) of a Series 5 CM5 dextran sensor chip (BR-1005-30) using EDC/NHS cross-linking chemistry according to the amine coupling kit protocol (GE, BR-1000-50). Culture supernatants containing expressed IgG4 were diluted 1:2 with 2×PBS-T and injected into FC2 (flowrate 5 μl/min, 60 s contact time) to enable antibody capture at 25° C. […] A fixed concentration of antigen (15 nM of human and mouse TNC rCd4-His-FBG and 100 nM of human TNR rCd4-His-FBG) was injected with a flow-path via FC 1 (reference flow cell) and FC 2 (antibody capture flow cell), with a flow rate of 30 μl/min, and the association and dissociation phases measured over 1 and 5 min time periods, respectively. Regeneration of the binding surface employed 3M MgCl₂ with 30 s contact time. Off rates were determined by reference cell subtraction and fitting the sensogram experimental data assuming a 1:1 interaction using BIAevaluation software (GE, BR-1005-97).

[2] = target: T2, mouse tenascin-C rCd4-His-FBG; assay: as above
Method: as §1

| koff [1] [s⁻¹] | koff [2] [s⁻¹] | Binder |
| --- | --- | --- |
| 0.000872 | 0.00797 | 165_13_A4 human IgG4 (antibody, V domains shown, human IgG4 with hinge S241P) VH: QVQLVESGGGLVQPGRSLRLSCAASGFTFDDYAMHWVRQAPGKGLEWVSGISGSGGSTYYADSVKGRFTISRDNAKNSLYLQMNSLRAEDTALYYCAKDKYPVLDTFDIWGQGTMVTVSS VL: DIQMTQSPASLPTPVGDRVTITCRASQYIQGFLNWYQQKPGKAPKLLIYDASNLETGVPSRFSGSGSGTDFTLTISSLQPEDFATYYCQQSYSTPQTFGQGTKVDIKR |
| < 1e-05 | 0.0016 | 162_02_C1 human IgG4 (antibody, V domains shown, human IgG4 with hinge S241P; also called Antibody 162 02 C1 (derived from 2A5)) VH: EVRLVQSGAEVKKPGASVKVSCKVSGYTLTELSMHWVRQAPGKGLEWMGGFDPEDGETIYAQKFQGRVTMTEDTSTDTAYMELSSLRSEDTAVYYCATAQKETYALTYWGQGTLVTVSS VL: DIQMTQSPASLPTSVGDRVTITCRASQYIQGFLNWYQQKPGKAPRLLIYAASTLQDGVPSRFSGSGYGTDFTLTISSLQPEDFATYYCLHHYRAPWTFGQGTKVEIKR |
|  | 0.0559 | 160_01_E3 human IgG4 (antibody, V domains shown, human IgG4 with hinge S241P; also called Antibody 160 01 E3 (derived from 2A5)) VH: EVRLVQSGAEVKKPGASVKVSCKVSGYTLTELSMHWVRQAPGKGLEWMGGFDPEDGETIYAQKFQGRVTMTEDTSTDTAYMELSSLRSEDTAVYYCATQRYVWEALTYWGQGTLVTVSS VL: DIQMTQSPASLPTSVGDRVTITCRASQYIQGFLNWYQQKPGKAPRLLIYAASTLQDGVPSRFSGSGYGTDFTLTISSLQPEDFATYYCQQSYSTPWTFGQGTKVEIKR |
| 1.4e-06 | 0.0577 | 165_13_E1 human IgG4 (antibody, V domains shown, human IgG4 with hinge S241P) VH: QVQLVESGGGLVQPGRSLRLSCAASGFTFDDYAMHWVRQAPGKGLEWVSGISGSGGSTYYADSVKGRFTISRDNAKNSLYLQMNSLRAEDTALYYCAKDISAVMDVPQTWGQGTMVTVSS VL: DIQMTQSPASLPTPVGDRVTITCRASQYIQGFLNWYQQKPGKAPKLLIYDASNLETGVPSRFSGSGSGTDFTLTISSLQPEDFATYYCQQSYSTPQTFGQGTKVDIKR |
| 2.6e-05 | 1 | 180_11_F5 human IgG4 (antibody, V domains shown, human IgG4 with hinge S241P; also called Antibody 180 11 F5 (derived from B12)) VH: QVQLVESGGGLVQPGRSLRLSCAASGFTFDDYAMHWVRQAPGKGLEWVSGISGSGGSTYYADSVKGRFTISRDNAKNSLYLQMNSLRAEDTALYYCAKVMRTGLDTFDIWGQGTMVTVSS VL: DIQMTQSPASLPTPVGDRVTITCRASQYIQGFLNWYQQKPGKAPKLLIYDASNLETGVPSRFSGSGSGTDFTLTISSLQPEDFATYYCQQSYSTPQTFGQGTKVDIKR |
| 1.6e-05 | 0.0171 | 160_01_H4 human IgG4 (antibody, V domains shown, human IgG4 with hinge S241P; also called Antibody 160 01 H4 (derived from 2A5)) VH: EVRLVQSGAEVKKPGASVKVSCKVSGYTLTELSMHWVRQAPGKGLEWMGGFDPEDGETIYAQKFQGRVTMTEDTSTDTAYMELSSLRSEDTAVYYCATGRFVWEALTYWGQGTLVTVSS VL: DIQMTQSPASLPTSVGDRVTITCRASQYIQGFLNWYQQKPGKAPRLLIYAASTLQDGVPSRFSGSGYGTDFTLTISSLQPEDFATYYCQQSYSTPWTFGQGTKVEIKR |
| 1.05e-05 | 0.0559 | 160_01_D6 human IgG4 (antibody, V domains shown, human IgG4 with hinge S241P; also called Antibody 160 01 D6 (derived from 2A5)) VH: EVRLVQSGAEVKKPGASVKVSCKVSGYTLTELSMHWVRQAPGKGLEWMGGFDPEDGETIYAQKFQGRVTMTEDTSTDTAYMELSSLRSEDTAVYYCATAQADPHLFTYWGQGTLVTVSS VL: DIQMTQSPASLPTSVGDRVTITCRASQYIQGFLNWYQQKPGKAPRLLIYAASTLQDGVPSRFSGSGYGTDFTLTISSLQPEDFATYYCQQSYSTPWTFGQGTKVEIKR |
| 1.15e-05 | 0.0017 | 162_02_C2 human IgG4 (antibody, V domains shown, human IgG4 with hinge S241P; also called Antibody 162 02 C2 (derived from 2A5)) VH: EVRLVQSGAEVKKPGASVKVSCKVSGYTLTELSMHWVRQAPGKGLEWMGGFDPEDGETIYAQKFQGRVTMTEDTSTDTAYMELSSLRSEDTAVYYCATAQKETYALTYWGQGTLVTVSS VL: DIQMTQSPASLPTSVGDRVTITCRASQYIQGFLNWYQQKPGKAPRLLIYAASTLQDGVPSRFSGSGYGTDFTLTISSLQPEDFATYYCMHHYRAPWTFGQGTKVEIKR |
| 3.2e-07 | 0.00094 | 163_02_A12 human IgG4 (antibody, V domains shown, human IgG4 with hinge S241P; also called Antibody 163 02 A12 (derived from 2A5)) VH: EVRLVQSGAEVKKPGASVKVSCKVSGYTLTELSMHWVRQAPGKGLEWMGGFDPEDGETIYAQKFQGRVTMTEDTSTDTAYMELSSLRSEDTAVYYCATAQKETYALTYWGQGTLVTVSS VL: DIQMTQSPASLPTSVGDRVTITCRASQYIQGFLNWYQQKPGKAPRLLIYAASTLQDGVPSRFSGSGYGTDFTLTISSLQPEDFATYYCLHHYREPWTFGQGTKVEIKR |
| 4e-06 |  | 160_01_F1 human IgG4 (antibody, V domains shown, human IgG4 with hinge S241P; also called Antibody 160 01 F1 (derived from 2A5)) VH: EVRLVQSGAEVKKPGASVKVSCKVSGYTLTELSMHWVRQAPGKGLEWMGGFDPEDGETIYAQKFQGRVTMTEDTSTDTAYMELSSLRSEDTAVYYCATAQSPWSGMTYWGQGTLVTVSS VL: DIQMTQSPASLPTSVGDRVTITCRASQYIQGFLNWYQQKPGKAPRLLIYAASTLQDGVPSRFSGSGYGTDFTLTISSLQPEDFATYYCQQSYSTPWTFGQGTKVEIKR |
| 3.2e-07 | 0.00098 | 163_02_D11 human IgG4 (antibody, V domains shown, human IgG4 with hinge S241P; also called Antibody 163 02 D11 (derived from 2A5)) VH: EVRLVQSGAEVKKPGASVKVSCKVSGYTLTELSMHWVRQAPGKGLEWMGGFDPEDGETIYAQKFQGRVTMTEDTSTDTAYMELSSLRSEDTAVYYCATAQKETYALTYWGQGTLVTVSS VL: DIQMTQSPASLPTSVGDRVTITCRASQYIQGFLNWYQQKPGKAPRLLIYAASTLQDGVPSRFSGSGYGTDFTLTISSLQPEDFATYYCLHHYKSPWTFGQGTKVEIKR |
| 1.4e-06 | 0.03 | 165_13_B3 human IgG4 (antibody, V domains shown, human IgG4 with hinge S241P) VH: QVQLVESGGGLVQPGRSLRLSCAASGFTFDDYAMHWVRQAPGKGLEWVSGISGSGGSTYYADSVKGRFTISRDNAKNSLYLQMNSLRAEDTALYYCAKALARGHDTFDIWGQGTMVTVSS VL: DIQMTQSPASLPTPVGDRVTITCRASQYIQGFLNWYQQKPGKAPKLLIYDASNLETGVPSRFSGSGSGTDFTLTISSLQPEDFATYYCQQSYSTPQTFGQGTKVDIKR |
| 5.9e-07 | 0.001 | 162_02_F4 human IgG4 (antibody, V domains shown, human IgG4 with hinge S241P; also called Antibody 162 02 F4 (derived from 2A5)) VH: EVRLVQSGAEVKKPGASVKVSCKVSGYTLTELSMHWVRQAPGKGLEWMGGFDPEDGETIYAQKFQGRVTMTEDTSTDTAYMELSSLRSEDTAVYYCATAQKETYALTYWGQGTLVTVSS VL: DIQMTQSPASLPTSVGDRVTITCRASQYIQGFLNWYQQKPGKAPRLLIYAASTLQDGVPSRFSGSGYGTDFTLTISSLQPEDFATYYCMHHYRSPWTFGQGTKVEIKR |
| 2.2e-07 |  | 161_01_C11 human IgG4 (antibody, V domains shown, human IgG4 with hinge S241P; also called Antibody 161 01 C11 (derived from 2A5)) VH: EVRLVQSGAEVKKPGASVKVSCKVSGYTLTELSMHWVRQAPGKGLEWMGGFDPEDGETIYAQKFQGRVTMTEDTSTDTAYMELSSLRSEDTAVYYCATAQKEWLPDVTWGQGTLVTVSS VL: DIQMTQSPASLPTSVGDRVTITCRASQYIQGFLNWYQQKPGKAPRLLIYAASTLQDGVPSRFSGSGYGTDFTLTISSLQPEDFATYYCQQSYSTPWTFGQGTKVEIKR |
